Experimental findings from article PMC5563082, “Structural Mechanism for Modulation of Synaptic Neuroligin-Neurexin Signaling by MDGA Proteins” (Neuron, 2017) are described below.

Test [1] deals with T1, human MDGA1 extracellular domain (MDGA1_(ECTO); Gln19-Lys925) (human, UniProt Q8NFP4-1 19-925).
T1 construct: human MAM domain-containing glycosylphosphatidylinositol anchor protein 1, Gln19-Lys925; Not deglycosylated; also called human MDGA1_(ECTO); source: HEK293T, transient transfection, purified (IMAC, SEC)
T1 sequence (looked up): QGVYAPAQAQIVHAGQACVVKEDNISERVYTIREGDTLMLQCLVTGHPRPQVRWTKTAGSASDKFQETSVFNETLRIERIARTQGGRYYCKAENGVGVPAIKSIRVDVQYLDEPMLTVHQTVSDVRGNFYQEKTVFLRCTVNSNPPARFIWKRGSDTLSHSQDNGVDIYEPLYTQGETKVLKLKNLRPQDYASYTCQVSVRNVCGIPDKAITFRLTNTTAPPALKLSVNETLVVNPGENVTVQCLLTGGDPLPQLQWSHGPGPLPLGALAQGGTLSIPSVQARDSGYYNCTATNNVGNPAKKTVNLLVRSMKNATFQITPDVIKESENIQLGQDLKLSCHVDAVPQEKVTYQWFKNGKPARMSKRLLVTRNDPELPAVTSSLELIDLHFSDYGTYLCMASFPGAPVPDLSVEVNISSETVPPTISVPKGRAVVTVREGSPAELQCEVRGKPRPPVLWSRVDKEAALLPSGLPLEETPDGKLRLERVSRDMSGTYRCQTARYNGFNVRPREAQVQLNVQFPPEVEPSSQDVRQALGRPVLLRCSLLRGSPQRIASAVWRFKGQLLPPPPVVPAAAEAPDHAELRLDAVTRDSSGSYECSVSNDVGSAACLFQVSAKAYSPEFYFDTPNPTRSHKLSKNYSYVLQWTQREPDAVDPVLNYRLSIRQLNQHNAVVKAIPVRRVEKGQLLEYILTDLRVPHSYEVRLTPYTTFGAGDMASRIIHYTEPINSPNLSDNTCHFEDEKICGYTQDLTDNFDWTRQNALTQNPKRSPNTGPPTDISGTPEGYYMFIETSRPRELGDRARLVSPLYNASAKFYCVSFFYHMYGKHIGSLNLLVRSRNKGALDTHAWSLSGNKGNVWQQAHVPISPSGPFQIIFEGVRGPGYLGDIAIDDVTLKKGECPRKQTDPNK
The experiment in a line: SPR; biotinylated NL_(ECTO)-Avitag variants captured from dialysed conditioned medium on streptavidin CM5 chip (500 RU; 550 RU for the ΔSite series; 1000 RU for NL3 and NL3 Arg451Cys in the R451C series); β-NRX1_(LNS6)(±4), MDGA1_(ECTO), MDGA2_(ECTO) injected, 15 concentrations, two-fold series from 50 μM; TBS-CTB (10 mM Tris pH 7.4, 150 mM NaCl, 3 mM CaCl2, 0.005% Tween-20, 1.0 g/L BSA); equilibrium analysis, 1:1 …. The note with it: both partners purified.

The target in test [2] is T2, human MDGA2 extracellular domain (MDGA2_(ECTO); Gln21-Lys927) (human, UniProt Q7Z553 21-927).
T2 construct: human MAM domain-containing glycosylphosphatidylinositol anchor protein 2, Gln21-Lys927; Not deglycosylated; source: HEK293T, transient transfection, purified (IMAC, SEC)
T2 sequence (looked up): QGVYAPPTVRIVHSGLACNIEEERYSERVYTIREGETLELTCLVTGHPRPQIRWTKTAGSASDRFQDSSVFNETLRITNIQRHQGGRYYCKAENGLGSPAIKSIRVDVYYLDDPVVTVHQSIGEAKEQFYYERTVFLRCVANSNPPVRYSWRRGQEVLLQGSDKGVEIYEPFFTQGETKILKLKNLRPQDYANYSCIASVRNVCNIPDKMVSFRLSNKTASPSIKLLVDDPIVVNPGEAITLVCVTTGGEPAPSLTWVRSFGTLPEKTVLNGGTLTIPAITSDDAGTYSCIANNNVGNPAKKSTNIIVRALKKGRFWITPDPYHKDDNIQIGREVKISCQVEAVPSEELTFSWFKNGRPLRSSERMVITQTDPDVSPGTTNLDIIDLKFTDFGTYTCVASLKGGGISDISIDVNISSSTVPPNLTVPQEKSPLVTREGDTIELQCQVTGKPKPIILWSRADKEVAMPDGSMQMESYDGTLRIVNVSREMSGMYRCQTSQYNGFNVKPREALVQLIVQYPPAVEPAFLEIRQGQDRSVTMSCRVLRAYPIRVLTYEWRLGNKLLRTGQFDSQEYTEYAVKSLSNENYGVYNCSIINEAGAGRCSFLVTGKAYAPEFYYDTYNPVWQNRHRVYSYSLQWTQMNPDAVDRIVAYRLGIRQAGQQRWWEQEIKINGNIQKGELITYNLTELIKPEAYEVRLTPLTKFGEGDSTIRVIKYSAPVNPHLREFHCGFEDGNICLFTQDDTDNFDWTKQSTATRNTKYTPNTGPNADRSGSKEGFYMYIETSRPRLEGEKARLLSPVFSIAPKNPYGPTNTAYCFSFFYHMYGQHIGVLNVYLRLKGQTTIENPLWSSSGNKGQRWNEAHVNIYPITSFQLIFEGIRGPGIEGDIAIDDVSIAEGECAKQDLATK
The test is described as above. The settings on record: both partners purified.

B1: human NL3(+A1+A2)_(ECTO), immobilised for SPR (domain or fragment, UniProt Q9NZ94-1 38-636, looked up)
chain: QAPAPTVNTHFGKLRGARVPLPSEILGPVDQYLGVPYAAPPIGEKRFLPPEPPPSWSGIRNATHFPPVCPQNIHTAVPEVMLPVWFTANLDIVATYIQEPNEDCLYLNVYVPTEDVKRISKECARKPNKKICRKGGSGAKKQGEDLADNDGDEDEDIRDSGAKPVMVYIHGGSYMEGTGNMIDGSILASYGNVIVITLNYRVGVLGFLSTGDQAAKGNYGLLDQIQALRWVSENIAFFGGDPRRITVFGSGIGASCVSLLTLSHHSEGLFQRAIIQSGSALSSWAVNYQPVKYTSLLADKVGCNVLDTVDMVDCLRQKSAKELVEQDIQPARYHVAFGPVIDGDVIPDDPEILMEQGEFLNYDIMLGVNQGEGLKFVEGVVDPEDGVSGTDFDYSVSNFVDNLYGYPEGKDTLRETIKFMYTDWADRDNPETRRKTLVALFTDHQWVEPSVVTADLHARYGSPTYFYAFYHHCQSLMKPAWSDAAHGDEVPYVFGVPMVGPTDLFPCNFSKNDVMLSAVVMTYWTNFAKTGDPNKPVPQDTKFIHTKANRFEEVAWSKYNPRDQLYLHIGLKPRVRDHYRATKVAFWKHLVPHLYNLHD
modifications: biotin on the Avitag (in vivo biotinylation by BirA)
notes: source: HEK293T, co-transfected with ER-resident BirA; dialysed conditioned medium, captured on streptavidin chip
On to B1, for which the binding result in test [1] and in test [2] was “binds” each time.

B2: human NL3(+A2)_(ECTO), immobilised for SPR (domain or fragment, UniProt Q9NZ94-1 38-636, looked up)
chain: QAPAPTVNTHFGKLRGARVPLPSEILGPVDQYLGVPYAAPPIGEKRFLPPEPPPSWSGIRNATHFPPVCPQNIHTAVPEVMLPVWFTANLDIVATYIQEPNEDCLYLNVYVPTEDGSGAKKQGEDLADNDGDEDEDIRDSGAKPVMVYIHGGSYMEGTGNMIDGSILASYGNVIVITLNYRVGVLGFLSTGDQAAKGNYGLLDQIQALRWVSENIAFFGGDPRRITVFGSGIGASCVSLLTLSHHSEGLFQRAIIQSGSALSSWAVNYQPVKYTSLLADKVGCNVLDTVDMVDCLRQKSAKELVEQDIQPARYHVAFGPVIDGDVIPDDPEILMEQGEFLNYDIMLGVNQGEGLKFVEGVVDPEDGVSGTDFDYSVSNFVDNLYGYPEGKDTLRETIKFMYTDWADRDNPETRRKTLVALFTDHQWVEPSVVTADLHARYGSPTYFYAFYHHCQSLMKPAWSDAAHGDEVPYVFGVPMVGPTDLFPCNFSKNDVMLSAVVMTYWTNFAKTGDPNKPVPQDTKFIHTKANRFEEVAWSKYNPRDQLYLHIGLKPRVRDHYRATKVAFWKHLVPHLYNLHD
modifications: biotin on the Avitag (in vivo biotinylation by BirA)
notes: as for B1
On to B2, for which the binding result in test [1] and in test [2] was “binds” each time.
